Reference: patent US20090246142A1, “Triggered Self-Assembly of Nanoparticles In Vivo” (MASSACHUSETTS INSTITUTE OF TECHNOLOGY, priority 2006, published 2009)

Molecular target: TAMRA-C(Ahx)QpYDHPNI-CONH2 (CRK SH2-binding phosphopeptide) on nanoparticles (pY-peptide TSACs)
Test: DLS of nanoparticle assembly, 12 nM TSACs, both partners polyvalent on particles

- hydrodynamic radius increase: 10 fold
Substance: Crk SH2 domain with an N-terminal cysteine (cys-SH2), conjugated to iron oxide nanoparticles (SH2 TSACs) (from UniProt P46108 13-118)
